# Experimental data taken from the RNAGym collection of RNA variant scans (doi:10.1073/pnas.2313332121).
# B1: TPR t1 (parent)
# chain: GACCAAUCUGCCCUCAGAGCUCGAGAACAUCUUCGGAUGCAGAGGAGGCAGGCUUCGGUGGCGCGAUAGCGCCAACGUCCUCAACCUCCAAUGCAUCCCACCACAUGAUGAUGCCUGAAGAGCCUUGGUUUUUUG
# Variants of: B1
# Experiment: polymerase ribozyme fitness, log enrichment relative to wild type (log ratio); higher = more active; in vitro selection for triplet polymerase activity
# How it was run: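 Mutant libraries of each subunit of a heterodimeric triplet polymerase ribozyme were built by PCR and transcribed. Each library went through one round of in vitro selection in triplicate: annealing with biotinylated primer, partner subunit and triplets, frozen incubation at −7 °C, gel excision of extended constructs, streptavidin-bead capture and RT-PCR. Input and output libraries were Illumina-sequenced; only genotypes with ≥10 input reads and ≥1 read per output were kept. Fitness is log2(genotype enrichment/wild-type enrichment), using inverse-variance-weighted replicate averages.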
row,Variant,polymerase ribozyme fitness (log ratio)
1,G39U C80U C101A A111U,-5.03
2,C40A G71A G113A,-3.05
3,G39C U54A,-0.125
4,U38C U54A G77A U96A G120A,-4.19
5,G39U C85A A90G A119U C123G U125G,-1.21
6,U38G A91C,-2.88
7,C40U G42C G63U C85U U130A,-5.03
8,C40G U67C C70U U116C U133C,-5.53
9,G39C G120U,-1.35
10,G39C G69A C115U G120A,-6.08
11,G39A G60C G113C C115A,-4.37
12,C40G C53A C123G,0.48
13,C40G A91C C98U,-5.6
14,G39A G48A C73A A100C G120A,-0.862
15,C40U A50C C76G G77C C80U U131G,-4.6
16,G39A A66U C123U,-0.175
17,C40U A43U C49A U55C G61C A84C G110C U131C,-6.76
18,G39A C49U U78C,-1.72
19,G39A G69C C124U,-0.485
20,C40U G45U G48U C82G A84G G120A,-2.88
21,C40G C115U,-2.07
22,G39A C56U C85U A111U,-3.84
23,G39U C76A U125G,-2.02
24,G39C C49G G77U C94A C98G C102U C123A U131A,-5.44

row,Variant,polymerase ribozyme fitness (log ratio)
1,C40A C72G A108G,-4.46
2,G39A G51A C64U U78C,-3.91
3,C40A G44A G45U A50C G93A,-5.29
4,G39A G51U A83G A95C C124A,-2.8
5,C40G G77U C101G U112A,-1.23
6,C40A G71U G117C G120C,-5.63
7,C40A C89U,-0.912
8,A37U U112A,0.71
9,U38G U54G,-0.407
10,U38G U54A,-0.658
11,C40A U96G,-1.47
12,C40U A43U G69U,0.0551
13,G39U C62U C115G,-1.99
14,G39A C72G G113A,-2.17
15,C40U G48A A50C C72A,0.216
16,C40A A50U A95C,-3.28
17,G39A G63C C72A,-4.54
18,C40A C70U C124U,-0.171
19,C40G G63U G120A,-0.497
20,G39C G48U G57C,-1.92
21,G39U A84U,-1.03
22,C40A G47A G60A A75U C86U C97U C123A U132A,-1.57
23,C40U G51U G58A,-4.36
24,C40U C56G C70U,-2.46

row,Variant,polymerase ribozyme fitness (log ratio)
1,G39U G127C,-1.28
2,C40G A41U G45U,-5.41
3,G39U G117U A118C,-4.29
4,C40G C79U C101U G113U,-4.09
5,G39U G51A,-3.64
6,U38G G52U,-2.27
7,C40U G60A G120U,-0.0652
8,C40U A84C U112A,0.737
9,C40U A46C C64U,-2.21
10,C40G U55G U78G,-2.04
11,G39A C72G,-0.976
12,G39A G110A,-1.31
13,A37U G69U U125C,-3.4
14,G39U G117U,-3.23
15,C40A U55A G69C C73A A84C G120A,-1.3
16,G39U G52C C53A A83U,-3.01
17,C40A G57C U81G C82G C97A A111U,-6.79
18,G39C G71C C86U,-2.13
19,A37U U106C,-0.686
20,G39A U112A,0.854
21,G39U G61A C85U,-0.878
22,C40U G45U G63A,-2.6
23,G39U C98U,-1.66
24,G39A A84U,-1.22

row,Variant,polymerase ribozyme fitness (log ratio)
1,G39U C56A A84C G113U,-4.13
2,C40G G57U,-1.36
3,C40A G52A G60A U81C A95U,-3.45
4,C40U C49A C72G A74U C94U G117C,-6.96
5,G39C C70U U112C,1.16
6,C40U G47A A118G,-2.47
7,C40A U106A G113A,-3.55
8,G39A G71A C82U U87C U132C,-1.47
9,C40G U59A C72U G110C G117A A119C U129G U133G,-7.24
10,G39U U87C,-0.0295
11,C40U G45C C49U G63U A83U,-5.92
12,U38C A43U,-2.21
13,G39U C40G U106A U109A G120C,-5.48
14,C40U G48U A50C G51A,-3.99
15,G39U C86U,-1.64
16,U38C G71C C82A A83U A90G,-2.39
17,C40G C64U U81A,-2.3
18,C40U A68U G69A C88U G93A U133A,-6.63
19,C40G U112A,1.38
20,C40A C56G G61A,-4.03
21,C40G C56A G69C C115G,-6.15
22,G39A A95G C115A,-0.556
23,G39U G71U,-1.16
24,C40G G51A C56A C72A A121U,-3.83

row,Variant,polymerase ribozyme fitness (log ratio)
1,G39A G93A,-2.02
2,C40U C80A A84U,-4.52
3,C40A C70A,-2.89
4,C40A A41U G57C C104U C114U,-3.33
5,U38G C56U U81A U131C,-2.23
6,G39A G113C C124G,-1.58
7,C40G G69A C79U,-2.89
8,G39C G63C,-1.54
9,G39C C89U C115G C123A,-4.39
10,C40A C56U U87A,-1.61
11,C40U C94U,-1.54
12,C40A C56A C73U A84C,-2.23
13,C40A G63U C104A G120A U130G,-5.07
14,C40G G110A,-1.53
15,C40A C102U,-3.15
16,C40G G113U C114U U133G,-2.25
17,G39U A111C C124A,0.34
18,G39U C62A C86A,-5.05
19,G39A C49U G57A A84U C97U G120C C124U G128U U132A,-2.74
20,U38G G61U,-0.532
21,C40U C98U,-2.01
22,C40A G48C G61A,-0.933
23,C40U C70A C85U G135U,-4.91
24,U38G G52A C62U C114A,-3.2

row,Variant,polymerase ribozyme fitness (log ratio)
1,C40U C72G U106A C123G U126A U131A,-1.25
2,C40U C73U,-0.508
3,G39U C86A U106A,-2.01
4,U38A C89G C114A C123A U131G,-4.1
5,C40U G52U C62U,-1.16
6,C40G G58C G60U C101U U126C,-2.69
7,U38C G71A,-1.37
8,G39U G45U C73G,-2.79
9,U38C G44U A111G U133G,-1.11
10,G39A G42U C72A,-1.57
11,U38G C49A C73U C86U U109G U126A,-5.53
12,G39U U92C C115U A119U,-3.57
13,G39U C64U,-0.207
14,G39C A66C,-1.94
15,C40A A43C G120C U130A,-2.63
16,U38G G47C C114A,-5.64
17,U38G C88U,-0.426
18,G39U U92A G110U U132A,-5.12
19,C40A C82U,-1.77
20,G39C G42U G47C,-3.36
21,U38C G48U A68G G122A C123U,-3.71
22,C40A G45U G110A,-4.4
23,G39U A84C G122A C123A C124A,0.979
24,C40G C56A,-1.63

row,Variant,polymerase ribozyme fitness (log ratio)
1,G39U G47C G57U A84C,-3.89
2,G39U C73U,-1.52
3,U38A A111U,-4.52
4,C40U A90U,-1.76
5,U38A A75U C82U A83C C88G U112C G122A,-2.99
6,C40G A41U G45A A91U,-4.47
7,G39U C53G U116C,-2.62
8,A37U G120A,1.2
9,C40U C53U C70U C72U C97U,-1.36
10,C40U G60A,-0.683
11,C40A G58C C72G U78G C79A,-5.64
12,G39C G69C,-2.22
13,A37U G77C,-1.31
14,C40U A41C G71A,-2.9
15,G39A G44A C62G U78C,-6.69
16,U38G U87A A95C,-1.01
17,C40A U133G,-1.45
18,U38G G61C U96G G122A,-4.11
19,C40U C56A A74C U130C,-1.15
20,C40G A50U G63C,-2.25
21,C40U G60C C82U A90G A95U C97A C123G,-7.02
22,C40A G69C A105G,-6.71
23,C40A U59A,-1.29
